Experimental data reported in patent US20240016931A1 (JIANGSU HENGRUI PHARMACEUTICALS, published 2024).

What was measured:
[1] = target: T1, Fc-tagged human TSLP antigen (huTSLP-Fc) (human, biotin-labeled in the blocking assays); assay: competition ELISA: blocks TSLP binding to TSLP receptor
T1 construct: whole entry named; also called recombinant human TSLP-Fc

[2] = target: T2, His-tagged human TSLP antigen (huTSLP-his) (human); assay: ELISA, coated huTSLP-his;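 note: binding of antibodies to plate-bound TSLP read as absorbance at 450 nm after TMB colour development, EC50 derived from binding curves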
T2 construct: Secreted from HEK293E and purified on nickel; whole entry named; also called Human TSLP-his

IC50 [1]	EC50 [2]	Binder
0.283 nM	–	hu199-08 (antibody, human IgG1, kappa, V domains shown, IgG1-YTE, kappa) VH: EVQLVQSGAEVKKPGASVKVSCKASGYTFTTYWMHWVRQAPGQGLEWMGMIDPSDSETTLIQKFKDRVTLTVDKSTSTAYMELSSLRSEDTAVYYCARTLDGYYDYWGQGTTVTVSS VL: DIQMTQSPSSLSASVGDRVTITCRASENIYSYLAWYQQKPGKAPKLLVYFAKTLAEGVPSRFSGSGSGTDFTLTISSLQPEDFATYYCQHHYGTPWTFGGGTKVEIKR
0.191 nM	–	hu199-01 (antibody, human IgG1, kappa, V domains shown, IgG1-YTE, kappa) VH: EVQLVQSGAEVKKPGASVKVSCKASGYTFTTYWMHWVRQAPGQGLEWMGMIDPSDSETTLIQKFKDRVTMTVDKSTSTAYMELSSLRSEDTAVYYCARTLDGYYDYWGQGTTVTVSS VL: DIQMTQSPSSLSASVGDRVTITCRASENIYSYLAWYQQKPGKAPKLLIYFAKTLAEGVPSRFSGSGSGTDFTLTISSLQPEDFATYYCQHHYGTPWTFGGGTKVEIKR
0.208 nM	–	hu199-03 (antibody, human IgG1, kappa, V domains shown, IgG1-YTE, kappa) VH: EVQLVQSGAEVKKPGASVKVSCKASGYTFTTYWMHWVRQAPGQGLEWMGMIDPSDSETTLIQKFKDRVTMTVDKSTSTAYMELSSLRSEDTAVYYCARTLDGYYDYWGQGTTVTVSS VL: DIQMTQSPSSLSASVGDRVTITCRASENIYSYLAWYQQKPGKSPQLLVYFAKTLAEGVPSRFSGSGSGTQFTLTISSLQPEDFATYYCQHHYGTPWTFGGGTKVEIKR
0.219 nM	–	hu199-02 (antibody, human IgG1, kappa, V domains shown, IgG1-YTE, kappa) VH: EVQLVQSGAEVKKPGASVKVSCKASGYTFTTYWMHWVRQAPGQGLEWMGMIDPSDSETTLIQKFKDRVTMTVDKSTSTAYMELSSLRSEDTAVYYCARTLDGYYDYWGQGTTVTVSS VL: DIQMTQSPSSLSASVGDRVTITCRASENIYSYLAWYQQKPGKAPKLLVYFAKTLAEGVPSRFSGSGSGTDFTLTISSLQPEDFATYYCQHHYGTPWTFGGGTKVEIKR
0.424 nM	–	hu199-04 (antibody, human IgG1, kappa, V domains shown, IgG1-YTE, kappa) VH: EVQLVQSGAEVKKPGASVKVSCKASGYTFTTYWMHWVRQAPGQGLEWMGMIDPSDSETTLIQKFKDRVTMTVDKSTSTAYMELSSLRSEDTAVYYCARTLDGYYDYWGQGTTVTVSS VL: DIQMTQSPSSLSASVGDRVTITCRASENIYSYLAWYQQKPGKAPKLLIYFAKTLAEGVPSRFSGSVSGTDFTLTISSLQPEDFATYYCQHHYGTPWTFGGGTKVEIKR
0.381 nM	–	hu199-06 (antibody, human IgG1, kappa, V domains shown, IgG1-YTE, kappa) VH: EVQLVQSGAEVKKPGASVKVSCKASGYTFTTYWMHWVRQAPGQGLEWMGMIDPSDSETTLIQKFKDRVTMTVDKSTSTAYMELSSLRSEDTAVYYCARTLDGYYDYWGQGTTVTVSS VL: DIQMTQSPSSLSASVGDRVTITCRASENIYSYLAWYQQKPGKSPQLLVYFAKTLAEGVPSRFSGSVSGTQFTLTISSLQPEDFATYYCQHHYGTPWTFGGGTKVEIKR
0.473 nM	–	hu199-05 (antibody, human IgG1, kappa, V domains shown, IgG1-YTE, kappa) VH: EVQLVQSGAEVKKPGASVKVSCKASGYTFTTYWMHWVRQAPGQGLEWMGMIDPSDSETTLIQKFKDRVTMTVDKSTSTAYMELSSLRSEDTAVYYCARTLDGYYDYWGQGTTVTVSS VL: DIQMTQSPSSLSASVGDRVTITCRASENIYSYLAWYQQKPGKAPKLLVYFAKTLAEGVPSRFSGSVSGTDFTLTISSLQPEDFATYYCQHHYGTPWTFGGGTKVEIKR
–	0.205 nM	hu179-14 (antibody, human IgG1, kappa, V domains shown, IgG1-YTE, kappa) VH: EVQLVQSGAEVKKPGSSVKVSCKASGYAFSNYLIEWVRQAPGQGLEWIGVIDPGNGDTNYNENFKGRATLTADKSTSTAYMELSSLRSEDTAVYYCAREDNTGTAFDYWGQGTTVTVSS VL: DIVMTQSPDSLAVSLGERATINCKASQSVSSDVTWYQQKPGQSPKLLIYYVSNHYTGVPDRFSGSGSGTDFTFTISSLQAEDVAVYYCQQHHRFPLTFGQGTKLEIKR
–	0.201 nM	hu179-31 (antibody, human IgG1, kappa, V domains shown, IgG1-YTE, kappa) VH: EVQLVQSGAEVKKPGSSVKVSCKASGYTFSNYLIEWVRQAPGQGLEWIGVIDPGNGDTNYNENFKGRATLTADKSTSTAYIELSSLRSEDTAVYYCAREDNTGTAFDYWGQGTTVTVSS VL: DIVMTQSPDSLAVSLGERATINCKASQSVSSDVTWYQQKPGQSPKLLIYYVSNEYTGVPDRFSGSGSGTDFTLTISSLQAEDVAVYYCQQHHRFPLTFGQGTKLEIKR
–	0.636 nM	hu179-24 (antibody, human IgG1, kappa, V domains shown, IgG1-YTE, kappa) VH: EVQLVQSGAEVKKPGSSVKVSCKASGGTFSNYLIEWVRQAPGQGLEWMGVIDPGNGDTNYNENFKGRVTITADKSTSTAYMELSSLRSEDTAVYYCAREDNTGTAFDYWGQGTTVTVSS VL: DIVMTQSPDSLAVSLGERATINCKASQSVSSDVTWYQQKPGQSPKLLIYYVSNYYTGVPDRFSGSGSGTDFTLTISSLQAEDVAVYYCQQHHRFPLTFGQGTKLEIKR
–	0.131 nM	hu179-25 (antibody, human IgG1, kappa, V domains shown, IgG1-YTE, kappa) VH: EVQLVQSGAEVKKPGSSVKVSCKASGYTFSNYLIEWVRQAPGQGLEWIGVIDPGNGDTNYNENFKGRATLTADKSTSTAYIELSSLRSEDTAVYYCAREDNTGTAFDYWGQGTTVTVSS VL: DIVMTQSPDSLAVSLGERATINCKASQSVSSDVTWYQQKPGQSPKLLIYEVSNHYTGVPDRFSGSGSGTDFTLTISSLQAEDVAVYYCQQHHRFPLTFGQGTKLEIKR
–	0.708 nM	hu179-20 (antibody, human IgG1, kappa, V domains shown, IgG1-YTE, kappa; also called hu179VH1-N55Q + hu179VL2) VH: EVQLVQSGAEVKKPGSSVKVSCKASGGTFSNYLIEWVRQAPGQGLEWMGVIDPGQGDTNYNENFKGRVTITADKSTSTAYMELSSLRSEDTAVYYCAREDNTGTAFDYWGQGTTVTVSS VL: DIVMTQSPDSLAVSLGERATINCKASQSVSSDVTWYQQKPGQSPKLLIYYVSNHYTGVPDRFSGSGSGTDFTLTISSLQAEDVAVYYCQQHHRFPLTFGQGTKLEIKR
–	0.203 nM	hu179-15 (antibody, human IgG1, kappa, V domains shown, IgG1-YTE, kappa) VH: EVQLVQSGAEVKKPGSSVKVSCKASGYAFSNYLIEWVRQAPGQGLEWIGVIDPGNGDTNYNENFKGRATLTADKSTSTAYMELSSLRSEDTAVYYCAREDNTGTAFDYWGQGTTVTVSS VL: SIVMTQSPDSLAVSLGERATINCKASQSVSSDVTWYQQKPGQSPKLLIYYVSNHYTGVPDRFSGSGSGTDFTLTISSLQAEDVAVYYCQQHHRFPLTFGQGTKLEIKR
–	0.752 nM	hu179-22 (antibody, human IgG1, kappa, V domains shown, IgG1-YTE, kappa; also called hu179VH1-G56V + hu179VL2) VH: EVQLVQSGAEVKKPGSSVKVSCKASGGTFSNYLIEWVRQAPGQGLEWMGVIDPGNVDTNYNENFKGRVTITADKSTSTAYMELSSLRSEDTAVYYCAREDNTGTAFDYWGQGTTVTVSS VL: DIVMTQSPDSLAVSLGERATINCKASQSVSSDVTWYQQKPGQSPKLLIYYVSNHYTGVPDRFSGSGSGTDFTLTISSLQAEDVAVYYCQQHHRFPLTFGQGTKLEIKR
–	0.997 nM	hu179-23 (antibody, human IgG1, kappa, V domains shown, IgG1-YTE, kappa) VH: EVQLVQSGAEVKKPGSSVKVSCKASGGTFSNYLIEWVRQAPGQGLEWMGVIDPGNGDTNYNENFKGRVTITADKSTSTAYMELSSLRSEDTAVYYCAREDNTGTAFDYWGQGTTVTVSS VL: DIVMTQSPDSLAVSLGERATINCKASQSVSSDVTWYQQKPGQSPKLLIYYVSDHYTGVPDRFSGSGSGTDFTLTISSLQAEDVAVYYCQQHHRFPLTFGQGTKLEIKR
–	0.204 nM	hu179-29 (antibody, human IgG1, kappa, V domains shown, IgG1-YTE, kappa) VH: EVQLVQSGAEVKKPGSSVKVSCKASGYTFSNYLIEWVRQAPGQGLEWIGVIDPGNGDTNYNENFKGRATLTADKSTSTAYIELSSLRSEDTAVYYCAREDNTGTAFDYWGQGTTVTVSS VL: DIVMTQSPDSLAVSLGERATINCKASQSVSSDVTWYQQKPGQSPKLLIYYVSEHYTGVPDRFSGSGSGTDFTLTISSLQAEDVAVYYCQQHHRFPLTFGQGTKLEIKR
–	0.978 nM	hu179-21 (antibody, human IgG1, kappa, V domains shown, IgG1-YTE, kappa; also called hu179VH1-N55V + hu179VL2) VH: EVQLVQSGAEVKKPGSSVKVSCKASGGTFSNYLIEWVRQAPGQGLEWMGVIDPGVGDTNYNENFKGRVTITADKSTSTAYMELSSLRSEDTAVYYCAREDNTGTAFDYWGQGTTVTVSS VL: DIVMTQSPDSLAVSLGERATINCKASQSVSSDVTWYQQKPGQSPKLLIYYVSNHYTGVPDRFSGSGSGTDFTLTISSLQAEDVAVYYCQQHHRFPLTFGQGTKLEIKR
–	0.201 nM	hu179-26 (antibody, human IgG1, kappa, V domains shown, IgG1-YTE, kappa) VH: EVQLVQSGAEVKKPGSSVKVSCKASGYTFSNYLIEWVRQAPGQGLEWIGVIDPGNGDTNYNENFKGRATLTADKSTSTAYIELSSLRSEDTAVYYCAREDNTGTAFDYWGQGTTVTVSS VL: DIVMTQSPDSLAVSLGERATINCKASQSVSSDVTWYQQKPGQSPKLLIYYVDNHYTGVPDRFSGSGSGTDFTLTISSLQAEDVAVYYCQQHHRFPLTFGQGTKLEIKR
–	0.0906 nM	hu179-28 (antibody, human IgG1, kappa, V domains shown, IgG1-YTE, kappa) VH: EVQLVQSGAEVKKPGSSVKVSCKASGYTFSNYLIEWVRQAPGQGLEWIGVIDPGNGDTNYNENFKGRATLTADKSTSTAYIELSSLRSEDTAVYYCAREDNTGTAFDYWGQGTTVTVSS VL: DIVMTQSPDSLAVSLGERATINCKASQSVSSDVTWYQQKPGQSPKLLIYYVSQHYTGVPDRFSGSGSGTDFTLTISSLQAEDVAVYYCQQHHRFPLTFGQGTKLEIKR
–	0.145 nM	hu179-32 (antibody, human IgG1, kappa, V domains shown, IgG1-YTE, kappa) VH: EVQLVQSGAEVKKPGSSVKVSCKASGYTFSNYLIEWVRQAPGQGLEWIGVIDPGNGDTNYNENFKGRATLTADKSTSTAYIELSSLRSEDTAVYYCAREDNTGTAFDYWGQGTTVTVSS VL: DIVMTQSPDSLAVSLGERATINCKASQSVSSDVTWYQQKPGQSPKLLIYYVSNHETGVPDRFSGSGSGTDFTLTISSLQAEDVAVYYCQQHHRFPLTFGQGTKLEIKR
–	0.18 nM	hu179-27 (antibody, human IgG1, kappa, V domains shown, IgG1-YTE, kappa) VH: EVQLVQSGAEVKKPGSSVKVSCKASGYTFSNYLIEWVRQAPGQGLEWIGVIDPGNGDTNYNENFKGRATLTADKSTSTAYIELSSLRSEDTAVYYCAREDNTGTAFDYWGQGTTVTVSS VL: DIVMTQSPDSLAVSLGERATINCKASQSVSSDVTWYQQKPGQSPKLLIYYVENHYTGVPDRFSGSGSGTDFTLTISSLQAEDVAVYYCQQHHRFPLTFGQGTKLEIKR
–	0.246 nM	hu179-30 (antibody, human IgG1, kappa, V domains shown, IgG1-YTE, kappa) VH: EVQLVQSGAEVKKPGSSVKVSCKASGYTFSNYLIEWVRQAPGQGLEWIGVIDPGNGDTNYNENFKGRATLTADKSTSTAYIELSSLRSEDTAVYYCAREDNTGTAFDYWGQGTTVTVSS VL: DIVMTQSPDSLAVSLGERATINCKASQSVSSDVTWYQQKPGQSPKLLIYYVSNDYTGVPDRFSGSGSGTDFTLTISSLQAEDVAVYYCQQHHRFPLTFGQGTKLEIKR
